# Laboratory results as given in patent publication US20250011804A1 (PIONEER HI BRED INTERNATIONAL, published 2025).
# B1: ZmSF2 (other)
# chain: MTRRNGCTIYVGNLPGDIREREVDDLFYKGRQCGLRMYGRIVEIDLKIPPRPPGFAFVEFEDARDAEDAIYGRDGYNFDGHRLRVELAHGGRGTSSFDRSSSYSSAGQRGASKRSDYRVMVTGLPSSASWQDLKDHMRRAGDVCFTDVYREAGATIGIADYTNYEDMKHAIRKLDDSEFRNAFSRTYVRVREYDARRSRSRSRGRNRSKSRSRSHSHSYSRSRSCSYSKSRSPRSRSASESKSPVKARSPSRSPPVSPRRDKSASRSPARSKSLPRSCSPAKSE
# notes: Tested as prey fusions; also called Zea mays splicing factor 2; GRMZM2G170365
# B2: ZmMADSL6 (other)
# chain: MGRGRVELKRIENKINRQVTFAKRRNGLLKKAYELSVLCDAEVALIIFSNRGKLYEFSSTQSMPKTLEKYQKCSFAGPETALQNRENEQLKSSRNEYLKLKARVDNLQRTQRNLLGEDLESLGIKELEHLEKQLDSSLKHIRSTRTQHMVDQLTELQKKEQMFCEANKCLRRRLEESNQVIWQHAWEQSERHSEVQPQQLNGNNFFHPLDGAGEPTLQIGYPSEALTSSCMTTFLPPWLP
# notes: positive control of the BiFC assay (full length); Tested as prey fusions; also called WT ZMMADSL6; full length ZmMADSL6
# B3: ZmMADS24 (other)
# chain: MGRGKVVLQRIENKISRQVTFAKRRNGLLKKAYELSILCDAEVALVLFSHAGRLYQFSSSSNLLKTLERYQRYIYASADAAVPSSDQMQNNYQEYVKLKARVEVLQHSQRNLLGEDLALLSPSELDQLENQVDKTLKQIRSRKTQVLLDELCDLKRKEQMLQDANRVLKRKLGEFEAEAASPPQLAWQGEGGMLSHDPPQPEHFFQALESNPCLQPTYHTMDMNQQPVPAPGGCYPAWMS
# notes: Tested as prey fusions; also called zmm24 - Zea mays MADS24; GRMZM2G087095
# B4: ZmMADS7-LIKE (other)
# chain: MGRGRVELKRIENKINRQVTFAKRRNGLLKKAYELSVLCDAEVALIVFSNRGKLYEFCSGPSITRTLERYEKNSYAGPDTAVQNKENELVQNSRNEYLKLKAKVDNLQRTQRNLLGEDLGSLGVKELDQLEKQIDSSLSHIRSTRTQHMLDQLTDLQRREQMMCEANKCLRRKLEETSNQVHGQVWEHGANLLLGYERHSSPQQAPSHVGNGLFFHPLEAAAEPTLQIGFAPEHMNNFMPAWLP
# notes: Tested as prey fusions; also called zmm7 - Zea mays MADS7; GRMZM2G097059
# B5: ZmZAG2 (other)
# chain: MGRGRIEIKRIENNTSRQVTFCKRRNGLLKKAYELSVLCDAEVALIVFSSRGRLYEYANNSVKATIERYKKAHTVGSSSGPPLLEHNAQQFYQQESAKLRNQIQMLQNTNRHLVGDSVGNLSLKELKQLESRLEKGISKIRARKSELLAAEISYMAKRETELQNDHMTLRTKIEEGEQQLQQVTVARSVAAAAAAATNLELNPFLEMDTKCFFTGGPFATLDMKCFLPGSLQQMLEAQQRQMLATELNLGYQLAPPGSDAADNNPHHQF
# notes: Tested as prey fusion (GAL4 AD in Y2H/HY1H, nGFP with 30x glutamine linker in BiFC); also called zag2 - Zea AGAMOUS homolog2; GRMZM2G160687
# B6: ZmSFT-LIKE (other)
# chain: MGSVLLPTLRLKSEVDAAIRDTLDKVLVLRFGRATDATCLHLDDILDKSSWDISKFAMVALVDMDSEEIQVYIDYFDITLVPATIFFFNAHHMKMDSGTPDHTKWIGSFSSKQDFIDVVEAIFRGAMKGKLIVSCPLPPERIPRFQLLFKDV
# notes: Tested as prey fusions; also called ZmSFT-like - Zea mays mRNA splicing factor thioredoxin-like U5 snRNP; GRMZM2G086779
# B7: Zmm28 transcription factor (other)
# chain: MGRGPVQLRRIENKINRQVTFSKRRNGLLKKAHEISVLCDAEVALIVFSTKGKLYEYSSHSSMEGILERYQRYSFEERAVLNPSIEDQANWGDEYVRLKSKLDALQKSQRQLLGEQLSSLTIKELQQLEQQLDSSLKHIRSRKNQLMFDSISALQKKEKALTDQNGVLQKFMEAEKEKNKALMNAQLREQQNGASTSSPSLSPPIVPDSMPTLNIGPCQHRGAAESESEPSPAPAQANRGNLPPWMLRTVK
# notes: MADS-box transcription factor; also called Zm00001d022088
# Biological target: B7
# Assay: BiFC, maize protoplasts, flow cytometry
# Protocol: (§1) Potential interaction partners of ZMM28 were further tested in vivo with a bimolecular fluorescence complementation (BiFC) assay. Following transfection of maize protoplasts, fluorescence was measured indicating interaction between nGFP-Prey and cGFP-ZMM28 (Bait). As BiFC is prone to false-positive self-assembly independent of protein-protein interaction, flow cytometry was used to quantify the BiFC signal and reduce the occurrence of false positives. All signal comparisons were made to a negative control providing a baseline for self-assembly. The control was created by deleting 47 amino acids from the leucine zipper-like K-domain of ZMMADSL6, a protein interaction partner of ZMM28 identified from bioinformatics prediction and Y2H experiment. […] Of the 12 tested protein interactions, eight were confirmed via the BiFC assay with almost half the interactions confirmed positive in both BiFC and Y2H assays (Table 2a). Table 2: ZMM28 protein-protein interactions, transcription, direct targets.
# (§2) Maize seedlings were germinated and grown in Fafard Super Fine Germination Mix for 6 days in a lighted growth chamber (30° C., 60% RH, 24 h light) and were transferred to a dark growth chamber (30° C., 60% RH, 0 h light) and grown for an additional 4 days to V1. Seedlings were sub-irrigated with deionized water. Maize protoplasts were isolated from these seedlings and were transiently transformed by PEG-mediated transfection as described by Yoo et al.63 with the addition of 0.6 M mannitol in the enzyme, WI, W5 and MMG solutions. Protoplasts were transfected with 10 pmol bait+10 pmol prey plasmid DNA per 3×10^4 cells. Protoplasts were incubated on a 12-well (1 mL WI) plate for 20 hours at RT before samples were analyzed.
# (§3) BiFC signals were detected by flow cytometry performed using an Attune™ Flow Cytometer (Thermo Fisher Scientific, Waltham, MA, USA) with a Blue/Violet configuration (488 nm, 20 mW laser and a 405 nm, 50 mW laser).
row,BiFC positive cell count,Binder
1,"715 cells out of 10,000",B1
2,"4060 cells out of 10,000",B2
3,"2100 cells out of 10,000",B3
4,"438 cells out of 10,000",B4
5,"125 cells out of 10,000",B5
6,"2330 cells out of 10,000",B6

# Biological target: the molecule itself
# Assay: BiFC, maize protoplasts, flow cytometry
# Protocol: as §1, §2, §3
row,Binder,BiFC positive cell count
1,B7,"1010 cells out of 10,000"
